# Read-outs that look alike come from different tables or passages of the source.
# T1: human IL-17F homodimer, bacterially expressed construct (residues 39-163 with GSEGE linker) (human, UniProt Q96PD4 39-163)
# T1 construct: also called IL-17F dimer
# T1 chain: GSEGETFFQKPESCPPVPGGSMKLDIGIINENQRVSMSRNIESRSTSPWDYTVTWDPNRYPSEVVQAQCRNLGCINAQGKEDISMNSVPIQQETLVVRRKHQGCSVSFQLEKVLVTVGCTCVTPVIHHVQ
# T2: human IL-17A homodimer, bacterially expressed construct (residues 40-155 with GSEDS spacer) (human, UniProt Q16552 40-155)
# T2 chain: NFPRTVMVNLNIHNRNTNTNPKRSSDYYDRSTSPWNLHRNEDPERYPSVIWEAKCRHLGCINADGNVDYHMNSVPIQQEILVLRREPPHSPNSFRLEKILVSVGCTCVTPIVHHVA
# B1: Bm17B02 with C-terminal Avi-Biotin-tag, biotinylated (VHH)
# VHH: QVQLVESGGGLVNTGGSLRLSCVVSGHTSEISAMGWYRQAPGKQRELVALITSRSGDTHYSDSVKGRFSISRDNAKNTMYLQMNSLNPDDTAVYYCVHNEPGHLYMAQGTQVTVSS
# modifications: biotin on the C-terminal Avi-tag (BirA)
# notes: not shown: C-terminal Avi-Biotin-tag
# B2: Re42F08 with C-terminal Avi-Biotin-tag, biotinylated (VHH)
# VHH: QVQLVESGGGLVKAGGSLRLSCVVSGHTSEISAMGWYRQAPGKQRELVALITSRSGDTHYSDSVKGRFSISRDNAKNTMYLQMNSLNPDDTAVYYCVHNEPGHLYMAQGTQVTVSS
# modifications: biotin on the C-terminal Avi-tag (BirA)
# notes: as for B1
# B3: Bm18F11 with C-terminal Avi-Biotin-tag, biotinylated (VHH)
# VHH: QVQLVESGGDLVQAGGSLRLSCAASGLTGSSYAMGWFRQAPGKEREFVAAISWISGDTKYTDSVKGRFTMSRDNAKKQVYLEMNSLKPEDTAVYYCNDMPYGLDTRMDEYVYWGQGTQVTVSS
# modifications: biotin on the C-terminal Avi-tag (BirA)
# notes: as for B1
# B4: Bm18B05 with C-terminal Avi-Biotin-tag, biotinylated (VHH)
# VHH: QVQLVESGGGLVQPGGSLRLSCAVSGRTFSSYAMGWFRRPPGKEREFVAAISWSGGDTKYADFVTDRFTISRDDAKSTVYLQMNSLKPEDTAVYYCNDMPYGLDTRMDEYEYWGQGTQVTVSS
# modifications: biotin on the C-terminal Avi-tag (BirA)
# notes: as for B1
# How the values were obtained:
# [1] = biological target: T3, human IL-17A/F heterodimer, bacterially expressed construct (human, UniProt Q16552 40-155; Q96PD4 39-163, limits assumed); test: BLI, VHH immobilized, IL-17 as analyte; apparent KD with avidity; µM as printed (Table 3 uses pM)
# T3 construct: IL-17A unit with N68D, IL-17F unit with N83D and C137S, both with GSEDS spacer; already in the entries
# Target sequence in this assay (Q16552 40-155 N68D limits assumed, chain 1 of 2): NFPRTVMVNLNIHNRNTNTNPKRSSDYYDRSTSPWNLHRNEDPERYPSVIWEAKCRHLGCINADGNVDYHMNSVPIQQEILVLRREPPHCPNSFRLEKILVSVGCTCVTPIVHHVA
# Target sequence in this assay (Q96PD4 other isoform, or with tags, fused parts or gaps limits assumed, chain 2 of 2): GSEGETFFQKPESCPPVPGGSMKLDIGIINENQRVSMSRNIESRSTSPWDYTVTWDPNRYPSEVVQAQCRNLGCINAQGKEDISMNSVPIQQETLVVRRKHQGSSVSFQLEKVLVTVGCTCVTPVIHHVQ
# Procedure: (§1) They were subsequently immobilized at a concentration of 0.7 μg/ml for 110 seconds to High Precision Streptavidin biosensors on an Octet RED96e instrument (ForteBio/Sartorius), using Phosphate-Buffered Saline (PBS) pH 7.4, 0.02% (w/v) Tween 20 and 0.1% (w/v) bovine serum albumin (BSA) as an assay buffer. 10, 20, and 40 nM of indicated IL-17 species were then allowed to bind for 800 seconds and, subsequently, to dissociate for another 800 seconds. Binding and dissociation were recorded as wavelength shifts (in nm). Baselines were recorded by measuring a ‘minus VHH control’ in parallel. On-rates, off-rates, and dissociation constants (KDS) were calculated by the Octet Data Analysis HT 12.0 software), using a mass transport model to fit the data.
# [2] = biological target: T1, human IL-17F homodimer, bacterially …; test: as above
# Procedure: as §1
# [3] = biological target: T2, human IL-17A homodimer, bacterially …; test: as above
# Procedure: as §1
# [4] = biological target: T3, human IL-17A/F heterodimer, bacterially …; test: BLI, biotinylated VHH immobilized on streptavidin sensors, IL-17 as analyte (10, 20, 40 nM), mass transport fit; apparent value, avidity possible
# Procedure: as §1
# [5] = biological target: T1, human IL-17F homodimer, bacterially …; test: as above
# Procedure: as §1
# [6] = biological target: T2, human IL-17A homodimer, bacterially …; test: as above
# Procedure: as §1
# [7] = biological target: T3, human IL-17A/F heterodimer, bacterially …; test: as above; remark: listed apart in the source
# Procedure: (§2) Binding and dissociation were recorded as wavelength shifts (in nm) on an Octet RED96e instrument (ForteBio/Sartorius). Baselines were recorded by measuring a ‘minus VHH control’ in parallel. On-rates, off-rates, and apparent dissociation constants (KDS) were calculated by the Octet Data Analysis HT 12.0 software), using a mass transport model to fit the data. […] All VHH antibodies characterized in BLI experiments were produced by periplasmic expression in E. coli.
# as §1
# [8] = biological target: T1, human IL-17F homodimer, bacterially …; test: as above
# Procedure: as §2, §1
# [9] = biological target: T2, human IL-17A homodimer, bacterially …; test: as above
# Procedure: as §2, §1
Binder,Kd [1],Kd [2],Kd [3],Kd [4],koff [4],kon [4],Kd [5],koff [5],kon [5],Kd [6],koff [6],kon [6],Kd [7],koff [7],kon [7],Kd [8],koff [8],kon [8],Kd [9],koff [9],also measured
B1,≤ 20000 nM,≤ 20000 nM,≤ 20000 nM,≤ 0.01 nM,≤ 1e-07 s⁻¹,1.4e+06 M⁻¹ s⁻¹,0.02 nM,5.4e-05 s⁻¹,750000 M⁻¹ s⁻¹,≤ 0.01 nM,≤ 1e-07 s⁻¹,220000 M⁻¹ s⁻¹,–,–,–,–,–,–,–,–,–
B2,≤ 20000 nM,≤ 20000 nM,≤ 20000 nM,≤ 0.01 nM,≤ 1e-07 s⁻¹,510000 M⁻¹ s⁻¹,0.02 nM,≤ 1e-07 s⁻¹,500000 M⁻¹ s⁻¹,≤ 0.01 nM,≤ 1e-07 s⁻¹,160000 M⁻¹ s⁻¹,–,–,–,–,–,–,–,–,–
B3,≤ 20000 nM,≤ 20000 nM,≤ 20000 nM,–,–,–,–,–,–,–,–,–,≤ 0.01 nM,≤ 1e-07 s⁻¹,280000 M⁻¹ s⁻¹,≤ 0.01 nM,≤ 1e-07 s⁻¹,150000 M⁻¹ s⁻¹,≤ 0.01 nM,≤ 1e-07 s⁻¹,kon [9]: 95000 M⁻¹ s⁻¹
B4,≤ 20000 nM,≤ 20000 nM,≤ 20000 nM,–,–,–,–,–,–,–,–,–,≤ 0.01 nM,≤ 1e-07 s⁻¹,120000 M⁻¹ s⁻¹,≤ 0.01 nM,≤ 1e-07 s⁻¹,86000 M⁻¹ s⁻¹,≤ 0.01 nM,≤ 1e-07 s⁻¹,kon [9]: 260000 M⁻¹ s⁻¹

# Reference: US20260209334A1 (MAX PLANCK GESELLSCHAFT ZUR F RDERUNG DER WISSENSCHAFTEN E V, published 2026)
